The source of these data is publication PMC9482650, “Quantitative fragmentomics allow affinity mapping of interactomes” (Nature Communications, 2022).

Some targets named below: TJP1_2, Q07157; NOS1, P29475; PTPN3, P26045; DLG2_3, Q15700; DLG1_2, Q12959; PICK1, Q9NRD5; HTRA1, Q92743; MAST1, Q9Y2H9; IL16_3, Q14005; MAGI2_5, Q86UL8; DLG2_2, Q15700.
What all share (test): holdup assay
Common to all, as to parameters: key: below the threshold = too weak to quantify, mostly under pKd 3.1 to 4

A further test has as its target T1, MPDZ_5, O75970.
T1 sequence (O75970 695-796, limits assumed, looked up): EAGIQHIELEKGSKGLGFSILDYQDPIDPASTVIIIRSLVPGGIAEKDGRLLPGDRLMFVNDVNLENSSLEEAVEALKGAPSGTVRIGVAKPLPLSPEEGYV

A further test addresses T2, LIN7A, O14910.
T2 sequence (O14910 103-200, limits assumed, looked up): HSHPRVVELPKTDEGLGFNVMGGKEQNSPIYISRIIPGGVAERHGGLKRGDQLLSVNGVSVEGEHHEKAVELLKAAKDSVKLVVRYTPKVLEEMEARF

In the next test the target is T3, TX1BP3, O14907.
T3 sequence (O14907 10-122, limits assumed, looked up): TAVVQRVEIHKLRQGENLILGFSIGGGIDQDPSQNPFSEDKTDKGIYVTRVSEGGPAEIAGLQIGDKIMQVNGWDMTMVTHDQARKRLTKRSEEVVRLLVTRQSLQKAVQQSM

For another test, the target named is T4, DLG3_1, Q92796.
T4 sequence (Q92796 125-227, limits assumed, looked up): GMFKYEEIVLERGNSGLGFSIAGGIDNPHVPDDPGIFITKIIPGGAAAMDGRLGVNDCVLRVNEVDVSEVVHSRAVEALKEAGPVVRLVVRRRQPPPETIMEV

Another test has as its target T5, NHERF3_1, Q5T2W1.
T5 sequence (Q5T2W1 4-100, limits assumed, looked up): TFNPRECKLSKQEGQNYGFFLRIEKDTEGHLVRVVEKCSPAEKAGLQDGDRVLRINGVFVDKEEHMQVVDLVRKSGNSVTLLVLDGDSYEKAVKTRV

The next test concerns the target T6, NHERF3_4, Q5T2W1.
T6 sequence (Q5T2W1 373-468, limits assumed, looked up): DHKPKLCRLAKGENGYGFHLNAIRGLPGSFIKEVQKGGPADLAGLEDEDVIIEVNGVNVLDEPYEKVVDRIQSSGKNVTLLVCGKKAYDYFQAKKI

For a further test, the target named is T7, MPDZ_10, O75970.
T7 sequence (O75970 1624-1722, limits assumed, looked up): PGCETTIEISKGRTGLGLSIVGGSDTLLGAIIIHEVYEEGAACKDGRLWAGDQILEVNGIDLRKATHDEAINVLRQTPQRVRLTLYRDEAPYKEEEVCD

The target of the next test is T8, DFNB31_2, Q9P202.
T8 sequence (Q9P202 274-371, limits assumed, looked up): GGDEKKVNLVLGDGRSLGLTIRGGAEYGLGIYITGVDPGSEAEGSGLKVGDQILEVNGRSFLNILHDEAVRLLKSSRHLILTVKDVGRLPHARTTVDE

The target of the next test is T9, PDZRN3_1, Q9UPQ7.
T9 sequence (Q9UPQ7 244-349, limits assumed, looked up): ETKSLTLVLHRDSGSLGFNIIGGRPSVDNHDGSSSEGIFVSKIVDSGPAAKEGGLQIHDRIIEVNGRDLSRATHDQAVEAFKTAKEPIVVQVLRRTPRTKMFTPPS

Another test deals with T10, APBA2_2, Q99767.
T10 sequence (Q99767 654-744, limits assumed, looked up): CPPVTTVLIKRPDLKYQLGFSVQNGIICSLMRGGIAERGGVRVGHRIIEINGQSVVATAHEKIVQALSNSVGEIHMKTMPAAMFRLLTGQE

Another test deals with T11, ARHGAP21, Q5T5U3.
T11 sequence (Q5T5U3 45-169, limits assumed, looked up): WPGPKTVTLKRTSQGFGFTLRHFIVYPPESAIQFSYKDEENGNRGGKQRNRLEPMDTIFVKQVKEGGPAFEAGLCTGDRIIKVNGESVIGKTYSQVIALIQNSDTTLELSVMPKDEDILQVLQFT

In a further test the target is T12, MPDZ_12, O75970.
T12 sequence (O75970 1857-1958, limits assumed, looked up): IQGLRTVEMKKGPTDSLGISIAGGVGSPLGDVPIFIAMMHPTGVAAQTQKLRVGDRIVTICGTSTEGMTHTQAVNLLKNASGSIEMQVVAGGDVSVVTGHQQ

A further test has as its target T13, LRRC7, Q96NW7.
T13 sequence (Q96NW7 1440-1537, limits assumed, looked up): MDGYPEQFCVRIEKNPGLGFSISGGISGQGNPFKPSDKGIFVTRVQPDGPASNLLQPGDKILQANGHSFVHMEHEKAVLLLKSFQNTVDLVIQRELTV

Setting [1] is: plain residues with an end cap or a label only (N-terminal biotin on a linker: ado-ado).
Setting [2] is: plain residues with an end cap or a label only (N-terminal biotin on a linker: (peg)3).

TJP1_2, Q07157, sequence (Q07157 181-274): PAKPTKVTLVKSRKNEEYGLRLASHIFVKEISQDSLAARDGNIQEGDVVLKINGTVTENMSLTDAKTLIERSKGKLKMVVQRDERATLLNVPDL
IL16_3, Q14005, sequence (Q14005 1107-1207): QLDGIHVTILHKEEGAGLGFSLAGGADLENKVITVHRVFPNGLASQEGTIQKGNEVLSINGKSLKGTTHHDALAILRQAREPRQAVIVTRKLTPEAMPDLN
MAGI2_5, Q86UL8, sequence (Q86UL8 915-1017): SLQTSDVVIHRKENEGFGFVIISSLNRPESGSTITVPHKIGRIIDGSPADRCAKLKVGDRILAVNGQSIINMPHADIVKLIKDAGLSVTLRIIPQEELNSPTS
NOS1, P29475, sequence (P29475 9-101): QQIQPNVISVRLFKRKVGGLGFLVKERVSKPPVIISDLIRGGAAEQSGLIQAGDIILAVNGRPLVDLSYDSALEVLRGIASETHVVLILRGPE
PICK1, Q9NRD5, sequence (Q9NRD5 17-115): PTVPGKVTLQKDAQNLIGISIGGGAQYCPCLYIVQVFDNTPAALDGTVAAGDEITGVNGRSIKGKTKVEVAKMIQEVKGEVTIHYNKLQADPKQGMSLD
MAST1, Q9Y2H9, sequence (Q9Y2H9 962-1065): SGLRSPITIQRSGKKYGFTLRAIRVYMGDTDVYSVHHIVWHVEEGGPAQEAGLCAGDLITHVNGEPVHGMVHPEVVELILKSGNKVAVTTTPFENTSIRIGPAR
PTPN3, P26045, sequence (P26045 505-587): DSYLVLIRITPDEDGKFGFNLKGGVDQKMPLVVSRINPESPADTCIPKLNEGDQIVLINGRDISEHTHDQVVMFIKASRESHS
HTRA1, Q92743, sequence (Q92743 360-477): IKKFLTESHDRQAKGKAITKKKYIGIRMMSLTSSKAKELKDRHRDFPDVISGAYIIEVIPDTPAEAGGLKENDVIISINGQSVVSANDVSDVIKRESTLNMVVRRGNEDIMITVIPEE
DLG1_2, Q12959, sequence (Q12959 314-412): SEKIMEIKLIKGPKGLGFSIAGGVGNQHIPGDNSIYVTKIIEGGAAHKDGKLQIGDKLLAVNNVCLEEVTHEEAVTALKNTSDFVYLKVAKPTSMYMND

QKNRKAQEDL [CES3, Q6UWW8]: the pKd result was “below the threshold” with MPDZ_5, O75970 (setting [1]); “below the threshold” in the test with TJP1_2, Q07157 (setting [1]); “below the threshold” in the test with NOS1, P29475 (setting [1]); 3.74 in the test with PTPN3, P26045 (setting [1]); “below the threshold” in the test with LIN7A, O14910 (setting [1]); 3.65 in the test with DLG2_3, Q15700 (setting [1]). Moreover, the pKd entry was “below the threshold” with DLG1_2, Q12959 (setting [1]); 4 with PICK1, Q9NRD5 (setting [1]); “below the threshold” with HTRA1, Q92743 (setting [1]); “below the threshold” with MAST1, Q9Y2H9 (setting [1]); “below the threshold” with TX1BP3, O14907 (setting [1]); “below the threshold” in the test with IL16_3, Q14005 (setting [1]). The pKd entry in the test with DLG3_1, Q92796 (setting [1]) was “below the threshold”; with NHERF3_1, Q5T2W1 (setting [1]) it was “below the threshold”; with MAGI2_5, Q86UL8 (setting [1]) it was “below the threshold”; in the test with NHERF3_4, Q5T2W1 (setting [1]), “below the threshold”; with MPDZ_10, O75970 (setting [1]), “below the threshold”; with DLG2_2, Q15700 (setting [1]) it was “below the threshold”. Moreover, the pKd entry with DFNB31_2, Q9P202 (setting [1]) was “below the threshold”; with PDZRN3_1, Q9UPQ7 (setting [1]) it was “below the threshold”; with APBA2_2, Q99767 (setting [1]) it was “below the threshold”; with ARHGAP21, Q5T5U3 (setting [1]) it was “below the threshold”; with MPDZ_12, O75970 (setting [1]) it was “below the threshold”; in the test with LRRC7, Q96NW7 (setting [1]), “below the threshold”.
Regarding NLNSSEGVPDLLV [SARS-CoV-E, P59637], the pKd result in the test with MPDZ_5, O75970 (setting [2]) is “below the threshold”; with TJP1_2, Q07157 (setting [2]), 5.18; in the test with NOS1, P29475 (setting [2]) it was “below the threshold”; with PTPN3, P26045 (setting [2]), “below the threshold”; with LIN7A, O14910 (setting [2]) it was “below the threshold”; with DLG2_3, Q15700 (setting [2]) it was “below the threshold”. Further, the pKd result in the test with DLG1_2, Q12959 (setting [2]) was “below the threshold”; with PICK1, Q9NRD5 (setting [2]) it was “below the threshold”; with HTRA1, Q92743 (setting [2]) it was 4.57; with MAST1, Q9Y2H9 (setting [2]), 3.79; with TX1BP3, O14907 (setting [2]), “below the threshold”; with IL16_3, Q14005 (setting [2]) it was “below the threshold”. For the same molecule, the pKd entry with DLG3_1, Q92796 (setting [2]) is reported as “below the threshold”; with NHERF3_1, Q5T2W1 (setting [2]), “below the threshold”; with MAGI2_5, Q86UL8 (setting [2]) it was “below the threshold”; with NHERF3_4, Q5T2W1 (setting [2]), “below the threshold”; with MPDZ_10, O75970 (setting [2]), “below the threshold”; with DLG2_2, Q15700 (setting [2]), “below the threshold”. Moreover, the pKd result in the test with DFNB31_2, Q9P202 (setting [2]) is “below the threshold”; with PDZRN3_1, Q9UPQ7 (setting [2]) it was “below the threshold”; with APBA2_2, Q99767 (setting [2]), “below the threshold”; with ARHGAP21, Q5T5U3 (setting [2]) it was 3.88; with MPDZ_12, O75970 (setting [2]) it was “below the threshold”; with LRRC7, Q96NW7 (setting [2]), “below the threshold”.
PKRSFIESNV [TANC1, Q9C0D5]: the pKd entry was “below the threshold” in the test with MPDZ_5, O75970 (setting [1]); “below the threshold” in the test with TJP1_2, Q07157 (setting [1]); “below the threshold” in the test with NOS1, P29475 (setting [1]); 4.57 in the test with PTPN3, P26045 (setting [1]); 3.49 in the test with LIN7A, O14910 (setting [1]); 4.28 with DLG2_3, Q15700 (setting [1]). The pKd is 4.96 with DLG1_2, Q12959 (setting [1]); 4.14 with PICK1, Q9NRD5 (setting [1]); “below the threshold” with HTRA1, Q92743 (setting [1]); 4.7 in the test with MAST1, Q9Y2H9 (setting [1]); 5.72 with TX1BP3, O14907 (setting [1]); “below the threshold” with IL16_3, Q14005 (setting [1]). Moreover, the negative logarithm of the Kd (pKd) with DLG3_1, Q92796 (setting [1]) is 4.15; in the test with NHERF3_1, Q5T2W1 (setting [1]) it was 4.3; in the test with MAGI2_5, Q86UL8 (setting [1]), 4.41; with NHERF3_4, Q5T2W1 (setting [1]) it was “below the threshold”; with MPDZ_10, O75970 (setting [1]), “below the threshold”; with DLG2_2, Q15700 (setting [1]), 4.72. In addition, the pKd result was “below the threshold” in the test with DFNB31_2, Q9P202 (setting [1]); 3.87 with PDZRN3_1, Q9UPQ7 (setting [1]); “below the threshold” with APBA2_2, Q99767 (setting [1]); 3.85 with ARHGAP21, Q5T5U3 (setting [1]); “below the threshold” with MPDZ_12, O75970 (setting [1]); 4.61 with LRRC7, Q96NW7 (setting [1]).
Take YLEPVLSSEL [ATP2A2, P16615;P16615-3]: the pKd entry was “below the threshold” with MPDZ_5, O75970 (setting [1]); “below the threshold” with TJP1_2, Q07157 (setting [1]); “below the threshold” with NOS1, P29475 (setting [1]); 4.93 in the test with PTPN3, P26045 (setting [1]); “below the threshold” with LIN7A, O14910 (setting [1]); “below the threshold” in the test with DLG1_2, Q12959 (setting [1]). The pKd entry in the test with PICK1, Q9NRD5 (setting [1]) is “below the threshold”; with MAST1, Q9Y2H9 (setting [1]), 4.83; with TX1BP3, O14907 (setting [1]), 3.94; in the test with IL16_3, Q14005 (setting [1]), “below the threshold”; with DLG3_1, Q92796 (setting [1]), “below the threshold”; with NHERF3_1, Q5T2W1 (setting [1]), 5.47. The pKd with MAGI2_5, Q86UL8 (setting [1]) is 4.82; with NHERF3_4, Q5T2W1 (setting [1]) it was 4.8; with MPDZ_10, O75970 (setting [1]), “below the threshold”; with DLG2_2, Q15700 (setting [1]), “below the threshold”; with DFNB31_2, Q9P202 (setting [1]) it was “below the threshold”; with APBA2_2, Q99767 (setting [1]) it was “below the threshold”. Moreover, the pKd entry is “below the threshold” with ARHGAP21, Q5T5U3 (setting [1]) and “below the threshold” with LRRC7, Q96NW7 (setting [1]).

For orientation: pKd means the negative decadic logarithm of the Kd, by convention in mol/L.
